Measurements published in the RNAGym collection of RNA variant scans (doi:10.7554/elife.80360).

B1: Hammerhead Ribozyme (parent)
chain: ACCGGAUGUGCUUUCCGGUCUGAUGAGUCCGUGAGGACGAAACAG

Variants of: B1
Assay: self-cleavage, relative activity (ratio to wild type); higher = more cleavage; co-transcriptional
Variant G25C A37U has a self-cleavage of 0.286. Variant U19C U32G has a self-cleavage of 0.642. Work on G39C A40G yielded a self-cleavage of 0.331. Work on U7G U13C yielded a self-cleavage of 1.45. U7G U13A gave a self-cleavage of 1.66. Work on U12A G45A yielded a self-cleavage of 0.678. Variant G18U A26C has a self-cleavage of 0.328. For G18A G25C, the self-cleavage was 0.332. In the case of U13G C43A, the self-cleavage is reported as 0.369. A26U U32C gave a self-cleavage of 0.819. C20U C43U gave a self-cleavage of 0.325. In the case of C29A G39U, the self-cleavage is reported as 0.387. Variant U7G U12G has a self-cleavage of 1.23. U7G U12A gave a self-cleavage of 1.24. G17C A23G gave a self-cleavage of 0.417. With G35A C38G the self-cleavage was 0.387. Variant G25U U32C has a self-cleavage of 0.268. Variant G8U U12A has a self-cleavage of 0.842. In the case of C3G U21C, the self-cleavage is reported as 0.413. Variant U14G A37G has a self-cleavage of 0.782. Work on A44G G45C yielded a self-cleavage of 2.15. In the case of U28A C30G, the self-cleavage is reported as 0.384. With G8C U32C the self-cleavage was 1.46. U14C G25U gave a self-cleavage of 0.32. For G10A U19G, the self-cleavage was 0.464. With A6U G22U the self-cleavage was 0.397. G4A G27A showed a self-cleavage of 0.332. With A6G G33A the self-cleavage was 0.844. For C3U A23C, the self-cleavage was 0.491. G10U U12C gave a self-cleavage of 0.689. In the case of G22A G31A, the self-cleavage is reported as 0.337. In the case of U19A G36A, the self-cleavage is reported as 0.369. In the case of G25C G39C, the self-cleavage is reported as 0.242. Variant C2G G36A has a self-cleavage of 0.3. Work on A1U C2A yielded a self-cleavage of 0.672. U19A G35U gave a self-cleavage of 0.373. Variant A1G A41U has a self-cleavage of 0.42. G31C A42C gave a self-cleavage of 0.328. With U24A A42U the self-cleavage was 0.354. Variant U13C G22A has a self-cleavage of 0.243. Variant G18C G36A has a self-cleavage of 0.347. In the case of C3G U32C, the self-cleavage is reported as 0.433. A23C C30U gave a self-cleavage of 0.578. For A6G C11U, the self-cleavage was 0.796. For A6G C11A, the self-cleavage was 0.965. Work on G8C A26G yielded a self-cleavage of 0.278. U9A U28C gave a self-cleavage of 0.98. With A6C G45C the self-cleavage was 0.433. In the case of U7A A34C, the self-cleavage is reported as 1.78. Variant G8A C15U has a self-cleavage of 0.835. For C30G C43G, the self-cleavage was 0.267. A26U C38A showed a self-cleavage of 0.6. With U14G U24G the self-cleavage was 0.575. For G5A A37U, the self-cleavage was 0.603. In the case of G17C U21C, the self-cleavage is reported as 0.275. Variant C30U G36U has a self-cleavage of 0.498. For C20A G39A, the self-cleavage was 0.347. With G31A A41G the self-cleavage was 0.317. In the case of G25A A42C, the self-cleavage is reported as 0.262. With U7C G45C the self-cleavage was 0.454. Work on G10U G18A yielded a self-cleavage of 0.836. Work on C38A C43U yielded a self-cleavage of 0.462. In the case of G33A G35U, the self-cleavage is reported as 0.866. Variant G22U U32G has a self-cleavage of 0.299. In the case of G22U A40G, the self-cleavage is reported as 0.288. For U28C A34G, the self-cleavage was 0.934. With A23G G35U the self-cleavage was 0.316. For U12G A23G, the self-cleavage was 0.407. For G31C A41G, the self-cleavage was 0.374. In the case of A6U A23C, the self-cleavage is reported as 0.368. For G18C A41G, the self-cleavage was 0.313. For G4C C16U, the self-cleavage was 1.39. G39U gave a self-cleavage of 0.363. Variant C15A A44G has a self-cleavage of 0.897. C11U C16U gave a self-cleavage of 0.817. In the case of U12G C38A, the self-cleavage is reported as 0.711. With U24C C29A the self-cleavage was 0.416. With U24G G36U the self-cleavage was 0.803. C15U G45U showed a self-cleavage of 0.822. G25U C43U showed a self-cleavage of 0.36. Variant U12G C29A has a self-cleavage of 0.643. In the case of G4C G8U, the self-cleavage is reported as 0.353. C29U A34U gave a self-cleavage of 0.603. C2U A40U gave a self-cleavage of 0.346. With G22U A37G the self-cleavage was 0.417. With C11U U32G the self-cleavage was 0.799. With G4C G36A the self-cleavage was 0.282. With G27C U28A the self-cleavage was 0.508. For G10A A37C, the self-cleavage was 1.19. For G5C A37G, the self-cleavage was 0.44. Work on C16U A23C yielded a self-cleavage of 0.474. Work on C2U C16G yielded a self-cleavage of 0.356. With U12C the self-cleavage was 1.05. Work on A37G G45A yielded a self-cleavage of 0.486. Variant U13C A37C has a self-cleavage of 1.07. G5U U28A showed a self-cleavage of 0.361. G17A A42U gave a self-cleavage of 0.396. Work on C3A G22A yielded a self-cleavage of 0.308. U21C C38G gave a self-cleavage of 0.659. C38U C43U showed a self-cleavage of 0.34. With G35C C43U the self-cleavage was 0.387. With G27A A41U the self-cleavage was 0.319. Work on U19G G45A yielded a self-cleavage of 0.424. For U13A U28G, the self-cleavage was 1.4. For U7A A37C, the self-cleavage was 1.12. In the case of G4A U24C, the self-cleavage is reported as 0.59. G25U C30A gave a self-cleavage of 0.293. U7C G22A showed a self-cleavage of 0.387. U19G A26G gave a self-cleavage of 0.319. Work on G25U G35U yielded a self-cleavage of 0.326. G25U A34G gave a self-cleavage of 0.261. Work on G8A G45U yielded a self-cleavage of 0.859. Work on C30U U32C yielded a self-cleavage of 1.05. With A41U C43U the self-cleavage was 0.362. Work on A23C G35A yielded a self-cleavage of 0.397. For C16A A26G, the self-cleavage was 0.37. With C16A A26C the self-cleavage was 0.433. With C3G G5C the self-cleavage was 0.268. For G22A A23C, the self-cleavage was 0.224. A26U A42U showed a self-cleavage of 0.261. Work on A26U A42G yielded a self-cleavage of 0.303. In the case of C20A G36C, the self-cleavage is reported as 0.313. A26U C30U gave a self-cleavage of 0.703. G27C C30U showed a self-cleavage of 0.818. G17A A44C showed a self-cleavage of 0.513. U13A U14C showed a self-cleavage of 0.548. U7G G36U showed a self-cleavage of 0.735. Variant G4A G45C has a self-cleavage of 0.393. In the case of A1U C29A, the self-cleavage is reported as 0.435. In the case of C15U G36C, the self-cleavage is reported as 0.356. For G5U A26G, the self-cleavage was 0.332. In the case of C16U G27A, the self-cleavage is reported as 0.858. In the case of U19C A41U, the self-cleavage is reported as 0.271. U14A U28A showed a self-cleavage of 0.656. With U13A C43A the self-cleavage was 0.254. A1G C3U showed a self-cleavage of 1.34. With C11U G18U the self-cleavage was 0.469. U12C C15U gave a self-cleavage of 0.974. G5C C43A gave a self-cleavage of 0.294. For A1C G31U, the self-cleavage was 0.561. A40U A44C gave a self-cleavage of 0.474. U13C C43U gave a self-cleavage of 0.499. U19A C29G gave a self-cleavage of 0.295. Work on G10A C15A yielded a self-cleavage of 0.927. With G10C C29A the self-cleavage was 0.678. G27A A42C gave a self-cleavage of 0.308. Variant A1C G5A has a self-cleavage of 0.483. A34G G45U showed a self-cleavage of 0.544. Variant G35A G45U has a self-cleavage of 0.471. For A40C C43U, the self-cleavage was 0.347. C2A C43A showed a self-cleavage of 0.333. In the case of C11A A34G, the self-cleavage is reported as 0.996. In the case of C11A A34U, the self-cleavage is reported as 0.771. Variant G22U C38U has a self-cleavage of 0.335. G35U A40C showed a self-cleavage of 0.374. In the case of A1U C16U, the self-cleavage is reported as 0.431. Variant C20U C38G has a self-cleavage of 0.298. Work on A26U A34G yielded a self-cleavage of 0.482. In the case of C3G A41G, the self-cleavage is reported as 0.274. C11G G35A showed a self-cleavage of 1.02. G8C G10C showed a self-cleavage of 1.47. With G4U G22U the self-cleavage was 0.296. G36C C38G gave a self-cleavage of 0.369. A1G C15U showed a self-cleavage of 1.68. In the case of U9C G33C, the self-cleavage is reported as 1.18. Variant G8C C11A has a self-cleavage of 1.43. A34U A37C gave a self-cleavage of 0.572.
